Laboratory results: patent US20100055110A1 (XOMA TECHNOLOGY, published 2010)

Biological target: recombinant human IL-1β (human, UniProt P01584 117-269)
Experiment: cell-based or functional assay

B1: AB1 (antibody, V domains shown)
VH: QVTLKESGPGILKPSQTLSLTCSFSGFSLSTSGMGVGWIRQPSGKGLEWLAHIWWDGDESYNPSLKTQLTISKDTSRNQVFLKITSVDTVDTATYFCARARYDPPWFVDWGQGTLVTVSS
VL: DIQMTQTTSSLSASLGDRVTISCRASQDISNYLSWYQQKPDGTVKLLIYYTSKLHSGVPSRFSGSGSGTDYSLTISNLEQEDIATYFCLQGKMLPWTFGGGTKLEIK
  IC50 (read off the curve); % inhibition of IL-6 release from human fibroblasts stimulated with IL-1 beta at 100 pg/ml: ~0.2 nM
